# Results published in PMC4176161 (Nucleic Acids Research, 2014).
# Like-named read-outs stand apart in the source and are kept apart here.
# What was measured:
# native gel or EMSA [1] = target: the molecule itself; assay: native gel or EMSA
# native gel or EMSA [2] = target: the molecule itself; assay: native gel or EMSA; remark: listed apart in the source
Protein,stoichiometry N (native gel or EMSA [1]),stoichiometry N (native gel or EMSA [2])
…2 (SEP2) (natural protein) not shown,2,4
…4 (SEP4) (natural protein) MGRGKVELKRIENKINRQVTFAKRRNGLLKKAYELSVLCDAEIALLIFSNRGKLYEFCSSPSGMARTVDKYRKHSYATMDPNQSAKDLQDKYQDYLKLKSRVEILQHSQRHLLGEELSEMDVNELEHLERQVDASLRQIRSTKARSMLDQLSDLKTKEEMLLETNRDLRRKLEDSDAALTQSFWGSSAAEQQQQHQQQQQGMSSYQSNPPIQEAGFFKPLQGNVALQMSSHYNHNPANATNSATTSQNVNGFFPGWMV,2,4
…1 (SEP1) (natural protein) MGRGRVELKRIENKINRQVTFAKRRNGLLKKAYELSVLCDAEVALIIFSNRGKLYEFCSSSNMLKTLDRYQKCSYGSIEVNNKPAKELENSYREYLKLKGRYENLQRQQRNLLGEDLGPLNSKELEQLERQLDGSLKQVRSIKTQYMLDQLSDLQNKEQMLLETNRALAMKLDDMIGVRSHHMGGGGGWEGGEQNVTYAHHQAQSQGLYQPLECNPTLQMGYDNPVCSEQITATTQAQAQQGNGYIPGWML,2,4
